Experimental data reported in the supplement of paper PMC7877785.
± gives the uncertainty stated by the source.

Assay: self-splicing fitness, log relative to wild type (ln ratio); higher = more splicing; Tetrahymena group I intron in knt gene, E. coli kanamycin selection, DiMSum; sequences stand for … in CUCUCU…GGAGGGAAAAGUUAUCAGGCAUGCACCUGGUAGCUAGUCUUUAAACCAAUAGAUUGCAUCGGUUUAAAAGGCAAGACCGUCAAAUUGCGGGAAAGGGGUCAACAGCCGUUCAGUACCAAGUCUCAGGGGAAACUUUGAGAUGGCCUUGCAAAGGGUAUGGUAAUAAGCUGACGGACAUGGUCCUAACCACGCAGCCAAGUCCUAAGUCAACAGAUCUUCUGUUGAUAUGGAUGCAGUUCACAGACUAAAUGUCGGUCGGGGAAGAUGUAUUCUUCUCAUAAGAUAUAGUCGGACCUCUCCUUAAUGGGAGCUAGCGGAUGAAGUGAUGCAACACUGGAGCCGCUGGGAACUAAUUUGUAUGCGAAAGUAUAUUGAUUAGUUUUGGAGUACUCGUGGUCG
Procedure, shortened: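 The eight P1ex-region nucleotides of an intron in the knt kanamycin-resistance gene on pET-22b(+) were all randomised and the library put into E. coli BL21(DE3). Six replicate transformations were grown overnight at 37°C or 30°C on LB agar with or without 25 μg/mL kanamycin, together with 100 μg/mL carbenicillin, 50 μM IPTG and 0.2% rhamnose. Colonies were pooled and amplicon-sequenced on an Illumina HiSeq 2500. Fitness from DiMSum is the error-weighted combination of wild-type-normalised replicate fold changes, kanamycin over none.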

Sequence	self-splicing fitness (ln) (30 °C)	self-splicing fitness (ln) (37 °C)
AGAAAGCAAUAUUACGAGUA	-2.18 ± 0.097	-1.13 ± 0.086
UACCAGCAAUAUUACGUCCU	-1.79 ± 0.1	-1.34 ± 0.14
GCACAGCAAUAUUACGCGCC	-2.56 ± 0.38	–
ACGCAGCAAUAUUACGGUGG	-2.52 ± 0.11	-1.17 ± 0.11
UGGCAGCAAUAUUACGAUAG	-2.32 ± 0.098	-0.473 ± 0.094
AUAUAGCAAUAUUACGGUUC	-3.14 ± 0.17	-2.5 ± 0.24
ACGGAGCAAUAUUACGGCUG	-2.87 ± 0.12	-1.26 ± 0.13
GCAAAGCAAUAUUACGCAGC	-0.0889 ± 0.15	-2.46 ± 0.39
AGUAAGCAAUAUUACGUAGG	-3.99 ± 0.19	-3.09 ± 0.22
UGGCAGCAAUAUUACGAAUU	-3.42 ± 0.21	-2.47 ± 0.22
GUUUAGCAAUAUUACGCAUC	-1.28 ± 0.14	-1.04 ± 0.19
CCCCAGCAAUAUUACGGACU	-3.61 ± 0.14	-3.13 ± 0.19
CGCUAGCAAUAUUACGAUUC	-3.29 ± 0.36	-2.12 ± 0.21
AGGAAGCAAUAUUACGAGUU	-3.11 ± 0.12	-1.03 ± 0.11
AAGUAGCAAUAUUACGCCCA	-1.95 ± 0.35	0.232 ± 0.38
GAAAAGCAAUAUUACGGAAU	-2.81 ± 0.13	-1.07 ± 0.1
CUGCAGCAAUAUUACGAAGA	-1.62 ± 0.23	-2.17 ± 0.27
UGUUAGCAAUAUUACGGCAU	-3.67 ± 0.32	-1.95 ± 0.27
UAGGAGCAAUAUUACGUCAC	-3.99 ± 0.16	-3.35 ± 0.21
GACAAGCAAUAUUACGUCAA	-2.87 ± 0.15	-1.95 ± 0.1
CCGAAGCAAUAUUACGAACG	-0.139 ± 0.077	0.554 ± 0.1
AUUGAGCAAUAUUACGAUAU	-2.76 ± 0.18	-1.04 ± 0.17
AGCGAGCAAUAUUACGCAAG	-3.18 ± 0.4	-2.43 ± 0.45
CCCCAGCAAUAUUACGAACC	-4.18 ± 0.34	-2.46 ± 0.36
UAACAGCAAUAUUACGGGGC	-3.63 ± 0.19	-2.86 ± 0.24

Sequence	self-splicing fitness (ln) (30 °C)	self-splicing fitness (ln) (37 °C)
AGGUAGCAAUAUUACGUACA	-0.927 ± 0.016	-0.257 ± 0.034
UCUAAGCAAUAUUACGAUCC	-3.87 ± 0.39	-2.5 ± 0.36
GGCCAGCAAUAUUACGACCA	-1.46 ± 0.1	-0.797 ± 0.11
CCAAAGCAAUAUUACGACUA	-2.34 ± 0.23	-2.7 ± 0.29
CACAAGCAAUAUUACGAGGA	-3.18 ± 0.25	-2.59 ± 0.19
GUCCAGCAAUAUUACGUUUC	-0.538 ± 0.056	-0.05 ± 0.074
UAUUAGCAAUAUUACGCGGA	-2.1 ± 0.2	-1.08 ± 0.13
AAGGAGCAAUAUUACGGGCA	-1.9 ± 0.23	-1.2 ± 0.28
AGGUAGCAAUAUUACGAAGA	-2.84 ± 0.03	-1.83 ± 0.038
ACCGAGCAAUAUUACGCCUA	–	-1.93 ± 0.28
CUCAAGCAAUAUUACGAGAU	-3.89 ± 0.2	-0.936 ± 0.12
AGCAAGCAAUAUUACGAGAU	-3.64 ± 0.24	-1.27 ± 0.21
AUCUAGCAAUAUUACGGGGC	-2.42 ± 0.47	–
GAACAGCAAUAUUACGUAUU	-1.57 ± 0.063	-0.99 ± 0.075
ACUCAGCAAUAUUACGAUGA	-1.82 ± 0.12	-0.791 ± 0.11
CCCAAGCAAUAUUACGAGCU	-4.17 ± 0.19	-2.44 ± 0.21
UCUGAGCAAUAUUACGCACG	-3.08 ± 0.33	–
CCACAGCAAUAUUACGUCAU	-3.67 ± 0.16	-2.81 ± 0.16
CGGCAGCAAUAUUACGGAAA	-3.57 ± 0.26	-2.7 ± 0.18
UGCGAGCAAUAUUACGUAGC	-2.36 ± 0.27	-2.05 ± 0.38
ACAAAGCAAUAUUACGCCGC	-3.43 ± 0.31	-1.52 ± 0.28
UGGAAGCAAUAUUACGAUCU	-0.0165 ± 0.12	-0.454 ± 0.15
GGAUAGCAAUAUUACGUGUG	-1.91 ± 0.12	-1.19 ± 0.14
UAAUAGCAAUAUUACGCGAC	-3.42 ± 0.35	-1.61 ± 0.34
GCCGAGCAAUAUUACGUCAC	–	-1.57 ± 0.24

Sequence	self-splicing fitness (ln) (30 °C)	self-splicing fitness (ln) (37 °C)
GCCCAGCAAUAUUACGUCGU	-0.113 ± 0.066	0.0609 ± 0.072
CGGUAGCAAUAUUACGCCUC	-2.36 ± 0.38	-0.282 ± 0.29
UAACAGCAAUAUUACGCCAG	-2.03 ± 0.12	-1.42 ± 0.18
GUUGAGCAAUAUUACGACAU	-0.358 ± 0.014	-0.067 ± 0.034
UCGAAGCAAUAUUACGUAGA	-1.81 ± 0.14	-0.562 ± 0.15
CUUAAGCAAUAUUACGAUCG	-0.53 ± 0.082	0.874 ± 0.12
AAAUAGCAAUAUUACGACCA	-0.537 ± 0.12	-0.525 ± 0.17
ACCCAGCAAUAUUACGCAGA	-1.02 ± 0.068	-0.231 ± 0.072
CAUGAGCAAUAUUACGUAAG	-0.906 ± 0.096	-0.568 ± 0.11
CUAGAGCAAUAUUACGCCUG	-0.0979 ± 0.087	0.825 ± 0.12
GGUUAGCAAUAUUACGAUUU	0.309 ± 0.089	0.0839 ± 0.12
CUCUAGCAAUAUUACGUAAC	-3.47 ± 0.29	–
GUUGAGCAAUAUUACGUGCU	-1.95 ± 0.35	–
GUUCAGCAAUAUUACGAACG	-2.55 ± 0.35	-0.953 ± 0.23
CCUAAGCAAUAUUACGCCCA	-3.67 ± 0.33	-2.02 ± 0.33
CGCCAGCAAUAUUACGGUUC	-2.29 ± 0.11	-1.54 ± 0.11
UGCGAGCAAUAUUACGUUCU	-1.68 ± 0.12	-2.05 ± 0.14
AGAUAGCAAUAUUACGAGGA	-2.21 ± 0.21	-2.65 ± 0.48
CCUUAGCAAUAUUACGGCCG	-1.85 ± 0.23	-0.27 ± 0.35
UUGCAGCAAUAUUACGGUAU	-1.86 ± 0.11	-1.63 ± 0.14
UCAAAGCAAUAUUACGCGGC	-3.92 ± 0.3	-2.59 ± 0.23
UUAGAGCAAUAUUACGAUAC	-2.36 ± 0.36	–
GAUCAGCAAUAUUACGUUCA	-0.939 ± 0.15	-0.942 ± 0.18
GCUAAGCAAUAUUACGGGAA	-1.56 ± 0.12	-1.16 ± 0.12
GGACAGCAAUAUUACGGGCU	-1.89 ± 0.14	-0.458 ± 0.13

Sequence	self-splicing fitness (ln) (30 °C)	self-splicing fitness (ln) (37 °C)
GCCCAGCAAUAUUACGCUAC	-3.18 ± 0.21	-2.72 ± 0.29
GUACAGCAAUAUUACGGUUG	-3.9 ± 0.23	-1.86 ± 0.2
AUUUAGCAAUAUUACGAUUC	-1.73 ± 0.22	-0.798 ± 0.26
UAUAAGCAAUAUUACGGGAG	-2.07 ± 0.11	-1.64 ± 0.12
CCUGAGCAAUAUUACGGUCC	-1.71 ± 0.36	-1.22 ± 0.43
CAUUAGCAAUAUUACGUCGG	-0.0974 ± 0.13	0.403 ± 0.14
AACGAGCAAUAUUACGCCGG	-2.42 ± 0.4	-0.855 ± 0.34
UAUCAGCAAUAUUACGUCUU	-1.65 ± 0.082	-0.155 ± 0.091
GAAAAGCAAUAUUACGCUCG	-0.762 ± 0.11	-0.303 ± 0.15
CAUUAGCAAUAUUACGAACG	0.479 ± 0.09	0.736 ± 0.099
AGCAAGCAAUAUUACGUGGU	-2.79 ± 0.12	-3.13 ± 0.18
UCUGAGCAAUAUUACGUAAG	-0.697 ± 0.11	-0.863 ± 0.19
CACCAGCAAUAUUACGUAUU	-3.78 ± 0.15	-2.7 ± 0.16
GAUUAGCAAUAUUACGUGGC	-3.36 ± 0.25	-2.3 ± 0.21
CCUUAGCAAUAUUACGGUGA	-3.63 ± 0.35	-2.91 ± 0.27
AAUCAGCAAUAUUACGUCUG	-1.16 ± 0.049	-0.895 ± 0.065
UUGCAGCAAUAUUACGUCGG	-0.191 ± 0.089	-0.117 ± 0.11
UUGGAGCAAUAUUACGACCA	-3.12 ± 0.48	-1.34 ± 0.35
CUUAAGCAAUAUUACGACAU	-3.434 ± 0.023	-2.11 ± 0.036
AUCAAGCAAUAUUACGGCGG	-1.04 ± 0.066	-0.788 ± 0.091
GCACAGCAAUAUUACGUUCU	-0.579 ± 0.054	-0.524 ± 0.068
CAGGAGCAAUAUUACGAUAA	-3.33 ± 0.2	-1.88 ± 0.16
